{
  "source": "paper PMC7667529",
  "biological_target": "megalin (low-density lipoprotein receptor-related protein 2) (mouse (endogenous in hippocampal neurons)) (UniProt A2ARV4)",
  "sequence (A2ARV4 26-4660)": "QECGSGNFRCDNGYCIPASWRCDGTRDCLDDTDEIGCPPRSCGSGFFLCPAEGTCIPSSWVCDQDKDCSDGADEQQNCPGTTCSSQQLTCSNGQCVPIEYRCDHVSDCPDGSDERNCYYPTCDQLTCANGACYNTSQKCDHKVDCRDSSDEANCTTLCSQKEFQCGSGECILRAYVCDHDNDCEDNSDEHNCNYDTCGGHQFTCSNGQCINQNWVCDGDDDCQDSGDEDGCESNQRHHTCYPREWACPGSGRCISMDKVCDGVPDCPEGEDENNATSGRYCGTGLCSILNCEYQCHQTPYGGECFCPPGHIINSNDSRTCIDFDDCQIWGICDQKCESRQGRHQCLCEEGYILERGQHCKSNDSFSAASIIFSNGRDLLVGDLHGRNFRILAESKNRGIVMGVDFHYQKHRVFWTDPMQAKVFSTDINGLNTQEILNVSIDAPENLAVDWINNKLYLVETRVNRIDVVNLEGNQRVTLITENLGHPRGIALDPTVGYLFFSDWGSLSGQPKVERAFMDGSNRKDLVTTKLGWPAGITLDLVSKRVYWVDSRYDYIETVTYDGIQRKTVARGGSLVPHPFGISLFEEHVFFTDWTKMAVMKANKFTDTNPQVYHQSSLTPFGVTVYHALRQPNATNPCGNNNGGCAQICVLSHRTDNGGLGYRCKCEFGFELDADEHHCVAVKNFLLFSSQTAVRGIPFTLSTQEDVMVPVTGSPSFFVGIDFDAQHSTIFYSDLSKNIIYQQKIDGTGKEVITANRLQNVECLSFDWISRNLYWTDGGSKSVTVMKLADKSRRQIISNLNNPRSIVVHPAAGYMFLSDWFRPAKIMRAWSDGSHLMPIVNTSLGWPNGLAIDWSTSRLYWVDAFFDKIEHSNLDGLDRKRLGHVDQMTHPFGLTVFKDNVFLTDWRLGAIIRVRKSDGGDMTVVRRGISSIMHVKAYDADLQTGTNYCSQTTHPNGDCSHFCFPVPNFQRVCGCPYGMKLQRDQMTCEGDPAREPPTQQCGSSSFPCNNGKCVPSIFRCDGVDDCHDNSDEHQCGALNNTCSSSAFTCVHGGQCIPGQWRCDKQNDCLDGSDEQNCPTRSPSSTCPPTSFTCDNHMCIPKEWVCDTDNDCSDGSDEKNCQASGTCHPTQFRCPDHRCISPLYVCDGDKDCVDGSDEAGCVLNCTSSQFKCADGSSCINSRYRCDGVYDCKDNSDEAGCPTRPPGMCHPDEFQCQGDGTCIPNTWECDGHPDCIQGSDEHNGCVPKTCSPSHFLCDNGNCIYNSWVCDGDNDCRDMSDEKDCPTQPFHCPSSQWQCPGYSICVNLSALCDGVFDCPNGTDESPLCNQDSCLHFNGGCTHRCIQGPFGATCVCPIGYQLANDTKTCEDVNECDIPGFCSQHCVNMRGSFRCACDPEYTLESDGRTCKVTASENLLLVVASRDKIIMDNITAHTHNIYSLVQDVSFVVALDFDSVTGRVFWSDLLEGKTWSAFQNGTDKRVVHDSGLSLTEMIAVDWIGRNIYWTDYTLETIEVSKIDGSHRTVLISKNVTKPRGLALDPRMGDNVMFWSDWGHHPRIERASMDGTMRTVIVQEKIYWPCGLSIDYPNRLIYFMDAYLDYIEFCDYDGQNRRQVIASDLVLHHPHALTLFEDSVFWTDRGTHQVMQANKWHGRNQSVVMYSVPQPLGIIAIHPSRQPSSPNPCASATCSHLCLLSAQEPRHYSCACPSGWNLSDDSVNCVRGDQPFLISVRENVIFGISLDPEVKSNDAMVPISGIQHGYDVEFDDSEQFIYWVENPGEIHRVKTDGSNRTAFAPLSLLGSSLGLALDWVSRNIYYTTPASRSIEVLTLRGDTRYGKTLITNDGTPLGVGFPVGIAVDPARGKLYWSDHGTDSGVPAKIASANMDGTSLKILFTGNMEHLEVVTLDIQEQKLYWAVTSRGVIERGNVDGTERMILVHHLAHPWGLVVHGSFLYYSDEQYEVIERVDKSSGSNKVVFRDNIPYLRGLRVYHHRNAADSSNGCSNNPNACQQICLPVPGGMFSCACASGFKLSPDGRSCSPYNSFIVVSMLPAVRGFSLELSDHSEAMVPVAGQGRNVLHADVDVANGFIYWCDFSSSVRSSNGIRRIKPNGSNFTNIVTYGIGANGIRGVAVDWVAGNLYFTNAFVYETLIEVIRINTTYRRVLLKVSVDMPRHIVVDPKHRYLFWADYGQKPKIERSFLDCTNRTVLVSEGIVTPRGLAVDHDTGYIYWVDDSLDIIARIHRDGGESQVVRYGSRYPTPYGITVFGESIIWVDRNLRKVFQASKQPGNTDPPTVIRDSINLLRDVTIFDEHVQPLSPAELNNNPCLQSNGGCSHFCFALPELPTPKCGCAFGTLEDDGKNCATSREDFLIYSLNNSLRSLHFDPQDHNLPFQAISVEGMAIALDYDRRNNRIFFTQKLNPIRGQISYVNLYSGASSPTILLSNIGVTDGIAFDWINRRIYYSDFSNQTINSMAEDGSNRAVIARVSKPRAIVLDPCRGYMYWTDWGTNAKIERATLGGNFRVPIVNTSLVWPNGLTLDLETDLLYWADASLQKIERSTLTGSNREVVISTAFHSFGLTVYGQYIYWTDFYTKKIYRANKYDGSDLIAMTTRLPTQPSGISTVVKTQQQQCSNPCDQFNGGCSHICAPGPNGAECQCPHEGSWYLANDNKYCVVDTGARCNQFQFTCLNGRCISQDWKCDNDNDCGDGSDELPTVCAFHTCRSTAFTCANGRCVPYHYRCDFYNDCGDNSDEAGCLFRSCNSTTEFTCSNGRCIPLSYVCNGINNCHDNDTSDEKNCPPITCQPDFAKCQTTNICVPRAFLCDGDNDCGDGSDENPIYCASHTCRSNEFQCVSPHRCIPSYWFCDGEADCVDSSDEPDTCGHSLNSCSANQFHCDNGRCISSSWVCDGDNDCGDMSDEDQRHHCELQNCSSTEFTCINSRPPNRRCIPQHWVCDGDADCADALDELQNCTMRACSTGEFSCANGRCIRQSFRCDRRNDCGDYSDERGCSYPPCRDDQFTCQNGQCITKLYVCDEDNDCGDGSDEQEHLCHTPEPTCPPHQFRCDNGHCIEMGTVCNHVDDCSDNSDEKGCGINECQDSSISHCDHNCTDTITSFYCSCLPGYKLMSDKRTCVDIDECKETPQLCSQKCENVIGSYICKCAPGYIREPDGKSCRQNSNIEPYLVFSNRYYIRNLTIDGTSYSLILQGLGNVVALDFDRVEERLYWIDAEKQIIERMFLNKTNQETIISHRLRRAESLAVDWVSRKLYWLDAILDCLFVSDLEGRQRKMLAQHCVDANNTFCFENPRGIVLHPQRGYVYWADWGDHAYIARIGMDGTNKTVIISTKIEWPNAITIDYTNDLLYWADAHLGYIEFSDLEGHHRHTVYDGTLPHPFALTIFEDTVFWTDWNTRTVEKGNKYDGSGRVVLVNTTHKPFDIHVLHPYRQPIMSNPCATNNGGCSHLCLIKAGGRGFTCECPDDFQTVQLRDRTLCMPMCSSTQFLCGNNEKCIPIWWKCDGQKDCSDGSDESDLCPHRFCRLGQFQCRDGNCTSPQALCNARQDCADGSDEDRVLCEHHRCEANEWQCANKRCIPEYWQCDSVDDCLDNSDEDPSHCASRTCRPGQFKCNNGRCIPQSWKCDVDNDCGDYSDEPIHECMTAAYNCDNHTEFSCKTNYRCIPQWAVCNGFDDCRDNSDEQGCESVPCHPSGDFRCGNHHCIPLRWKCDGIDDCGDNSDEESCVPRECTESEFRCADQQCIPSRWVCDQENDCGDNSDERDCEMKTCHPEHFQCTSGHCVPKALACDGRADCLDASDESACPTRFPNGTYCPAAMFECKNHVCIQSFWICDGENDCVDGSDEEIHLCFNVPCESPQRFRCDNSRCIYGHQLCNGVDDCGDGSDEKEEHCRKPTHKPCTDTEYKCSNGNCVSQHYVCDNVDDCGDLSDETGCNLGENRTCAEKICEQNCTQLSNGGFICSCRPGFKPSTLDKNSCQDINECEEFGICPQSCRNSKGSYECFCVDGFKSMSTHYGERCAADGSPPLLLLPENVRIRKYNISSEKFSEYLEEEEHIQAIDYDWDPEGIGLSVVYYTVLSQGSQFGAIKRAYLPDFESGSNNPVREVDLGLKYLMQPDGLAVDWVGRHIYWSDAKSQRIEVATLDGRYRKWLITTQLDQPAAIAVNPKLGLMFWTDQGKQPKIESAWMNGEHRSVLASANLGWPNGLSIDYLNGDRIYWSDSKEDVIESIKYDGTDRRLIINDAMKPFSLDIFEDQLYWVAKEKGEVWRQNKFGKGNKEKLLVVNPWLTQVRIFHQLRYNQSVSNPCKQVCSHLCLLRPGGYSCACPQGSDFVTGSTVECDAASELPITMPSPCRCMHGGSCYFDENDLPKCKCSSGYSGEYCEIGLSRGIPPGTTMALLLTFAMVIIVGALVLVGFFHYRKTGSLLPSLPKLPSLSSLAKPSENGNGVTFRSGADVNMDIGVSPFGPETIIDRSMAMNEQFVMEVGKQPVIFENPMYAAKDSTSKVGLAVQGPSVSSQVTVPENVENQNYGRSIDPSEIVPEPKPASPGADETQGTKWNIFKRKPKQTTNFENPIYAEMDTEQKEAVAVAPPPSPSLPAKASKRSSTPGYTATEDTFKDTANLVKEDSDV",
  "data": [
    {"substance": "recombinant mouse transthyretin (from UniProt P07309 21-147) (ligand)", "values": [
      {"measurement": "LRP2-ICD level (western blot, anti-GFP) in TTR KO neurons transfected with short-megalin-GFP and stimulated with recombinant mouse TTR (55 µg/ml, 4 h)", "value": 50, "unit": "% increase"},
      {"measurement": "LRP2-ICD level (western blot, anti-megalin) in non-transfected WT hippocampal neurons (15 DIV) after 5 min with recombinant mouse TTR (55 µg/ml)", "value": 5, "unit": "fold"}
    ]}
  ]
}
